Assay results: patent US11473073B2, “Aminopeptidases for protein hydrolyzates” (DUPONT NUTRITION BIOSCIENCES APS, priority 2015, dated 2022)

Key:
Type in all cases: biochemical
[1] = system: gluten; assay: Degree of hydrolysis of pre-hydrolysed gluten; conditions: 50° C., 20 hr
Method: (§1) The degree of hydrolyses (DH) describes the relative amount of cleaved peptides bounds compared to an acid hydrolyses of the same amount of protein conducted e.g. in 6 M HCL at ˜120° C. for ˜24 h. The higher the DH can therefore be applied to assess the efficiency of amino acid liberation of a general PepN such as a PepN 1 or a PepN 2 type. The cell free culture broth was concentrated (10 kDa cut-off, Sartorius, Göttingen, Germany) and desalted applying a disposal desalting column (PD10, GE, Munchen, Germany) as described by the manufacturer. As substrates were pre-hydrolysed 10% (w/w) Na-caseinate (DMK, Germany), whey protein isolate (WPI; Arla, Viby, Denmark), soy protein isolate (SPI; SUPRO® 760, DuPont, Brabrand, Denmark) and gluten suspensions were applied. The pre-hydrolysis was conducted with 1% (w/wprotein) of FOODPRO® Alkaline Protease, 1% (w/wprotein) FOODPRO® PNL for the Na-Caseinate, the WPI as well as the SPI suspension. All pre-hydrolyses were conducted at 55° C. for 18 h followed by an inactivation step at 95° C. for 20 min. Each applied PepN 2 has been inactivated at 95 C for 15 min as a control of the elimination of any carryover of amino acids from the culture broth to the final hydrolyses as well as for the sufficient inactivation of the applied endopeptidases. The hydrolyses were conducted in a 96-well micro titer plate format and consisted of 150 μL of the pre-hydrolyzed protein suspension combined with 50 μL of a PepN 2 stock solution as indicated in Table 1 below. The hydrolyses were conducted at 50° C. for 20 hr, subsequently, the hydrolysis were stopped by the addition of 20 μL 2 M TCA (Trichloroacetic acid, Sigma-Aldrich, Schnelldorf, Germany). The efficiency of the amino acid liberation of the PepN 2 types from Neosartorya fischeri and Aspergillus clavatus can be seen in Table 1 (B) and (A). […] For the gluten hydrolyses, an increased DH was noticed in the protein range from 0.02-0.3 mg/mL PepN 2.

[2] = system: Na-caseinate; assay: Degree of hydrolysis of pre-hydrolysed Na-caseinate; conditions: Casein, 50° C., 20 hr
Method: as §1

[3] = system: peptide WHWLQLKPGQPMY (SEQ ID NO:26); assay: Hydrolysis of proline containing peptide, LC-MS; conditions: peptide 1 mg/mL, aminopeptidase 1 ug/mL, CPB-Buffer, 55° C.; FIG. 5-7
Method: The peptide […] (SEQ ID NO:26) was hydrolysed with TRI03 and TRI035. The peptide (1 mg/mL) was incubated with 1 ug/mL of the aminopeptidase in 20 mM CPB-Buffer (20 mM Citric acid, 20 mM Phosphate. 20 mM Boric acid) at 55° C. Aliquots (50 μL) were stopped with 50 rel 5% TFA at the indicated time points and subjected to LC-MS analysis.
Capillary LC-MS/MS analyses were performed using an Agilent 1100 LC system (Agilent Technologies) interfaced to a LTQ Orbitrap Classic hybrid mass spectrometer (Thermo Scientific, Bremen, Germany). Samples were loaded onto a 15 cm Phenomenix Jupiter 4μ Proteo 90A, C4 analytical column. Separation was performed at a flow rate of 16 μL/min using a 10 min gradient of 0-40% Solvent B H2O/CH3CN/HCOOH (50/950/0.65 v/v/v) into the IONMAX® ion source (Thermo Scientific, San Jose). The LTQ Orbitrap Classic instrument was operated in a data-dependent MS/MS mode. The peptide masses were measured by the Orbitrap (MS scans were obtained with a resolution of 60 000 at m/z 400), and up to 2 of the most intense peptide m/z were selected and subjected to fragmentation using CID in the linear ion trap (LTQ). Dynamic exclusion was enabled with a list size of 500 masses, duration of 40 s, and an exclusion mass width of ±10 ppm relative to masses on the list.
The RAW files were accessed with the program Skyline 2.6.0.7176 (MacLean, B., et al., “Skyline: an open source document editor for creating and analyzing targeted proteomics experiments”, Bioinformatics, 2010, 26(7): p. 966-8) which uses the MS1 intensities to build chromatograms (Schilling, B., et al., “Platform-independent and label-free quantitation of proteomic data using MS1 extracted ion chromatograms in skyline: application to protein acetylation and phosphorylation”, Mol Cell Proteomics, 2012. 11(5): p. 202-14). The precursor isotopic import filter was set to a count of three, (M, M+1, and M+2) at a resolution of 60,000 and the most intense charge state was used. Peptide sequences of the substrate as well as cleavage products were typed into Skyline and intensities were calculated in each sample. […]

[4] = Product inhibition of H-Ala-pNA hydrolysis by amino acid inhibitor mix; conditions: pH 9.0, 30° C.
Method: Sigma cat # D2650). […] […] and proline were dissolved in DMSO. All other amino acids were dissolved in buffer. […] The reaction was started by adding 20 μL substrate. Only one substrate concentration was used per plate.

[5] = system: soy protein isolate (SPI); assay: Degree of hydrolysis of pre-hydrolysed soy protein isolate; conditions: 50° C., 20 hr
Method: as §1

[6] = system: whey protein isolate (WPI); assay: Degree of hydrolysis of pre-hydrolysed whey protein isolate; conditions: 50° C., 20 hr
Method: as §1

[7] = inactivated enzyme at the highest conc.

B1: TRI031: fungal aminopeptidase type-2 (pepN_2), NCBI XP_001258675 from Neosartorya fischeri NRRL 181, expressed in Trichoderma reesei (protein)
chain: MQTFGAFLVSFLAASGLAAANGPGWDWKPPVHPKVLPQMIHLWDLMHGAQKLEDFAYAYPERNRVFGGPAHEDTVNYLYRELKKTGYYDVYKQPQVHQWTRADQALTVDGKSYVATTMTYSPSVNVTAPLAVVNNLGCVESDYPADLKGKIALVSRGECPFATKSVLSAKAGAAAALVYNNIEGSMAGTLGGPTSELGPYAPIAGISLADGQALIQMIQAGTVTANLWIDSKVENRTTYNVIAQTKGGDPNNVVALGGHTDSVEAGPGINDDGSGIISNLVVAKALTRFSVKNAVRFCFWTAEEFGLLGSSYYVNSLNATEKAKIRLYLNFDMIASPNYALMIYDGDGSAFNLTGPAGSAQIERLFEDYYKSIRKPFVPTEFNGRSDYEAFILNGIPAGGIFTGAEAIKTEEQAKLFGGQAGVALDANYHAKGDNMTNLNREAFLINSKATAFAVATYANSLDSIPSRNMSTVVKRSQLEQAKKSTPHTHTGGTGCYKDRVEQ
modifications: Synthetic peptide with leader sequence
notes: fungal aminopeptidase type-2 (pepN_2), NCBI XP_001258675 from Neosartorya fischeri NRRL 181, expressed in Trichoderma reesei
Degree of hydrolysis ([1]; PepN 2 stock 0.02 mg/mL): 10% | Degree of hydrolysis ([1]; PepN 2 stock 0.03 mg/mL): 13% | Degree of hydrolysis ([1]; PepN 2 stock 0.04 mg/mL): 15% | Degree of hydrolysis ([1]; PepN 2 stock 0.05 mg/mL): 14% | Degree of hydrolysis ([1]; PepN 2 stock 0.1 mg/mL): 17% | Degree of hydrolysis ([1]; PepN 2 stock 0.15 mg/mL): 18% | Degree of hydrolysis ([1]; PepN 2 stock 0.2 mg/mL): 19% | Degree of hydrolysis ([1]; PepN 2 stock 0.25 mg/mL): 19% | Degree of hydrolysis ([1]; PepN 2 stock 0.3 mg/mL): 21% | Degree of hydrolysis ([1]; PepN 2 stock 0.35 mg/mL): 20% | Degree of hydrolysis [1, 7]: 4% | Degree of hydrolysis ([2]; PepN 2 stock 0.02 mg/mL): 14% | Degree of hydrolysis ([2]; PepN 2 stock 0.03 mg/mL): 15% | Degree of hydrolysis ([2]; PepN 2 stock 0.04 mg/mL): 16% | Degree of hydrolysis ([2]; PepN 2 stock 0.05 mg/mL): 20% | Degree of hydrolysis ([2]; PepN 2 stock 0.1 mg/mL): 19% | Degree of hydrolysis ([2]; PepN 2 stock 0.15 mg/mL): 21% | Degree of hydrolysis ([2]; PepN 2 stock 0.2 mg/mL): 23% | Degree of hydrolysis ([2]; PepN 2 stock 0.25 mg/mL): 22% | Degree of hydrolysis ([2]; PepN 2 stock 0.3 mg/mL): 24% | Degree of hydrolysis ([2]; PepN 2 stock 0.35 mg/mL): 24% | Degree of hydrolysis [2, 7]: 8% | hydrolysis of WHWLQLKPGQPMY to KPGQPMY and further down to QPMY [3]: can hydrolyze | product inhibition compared to TRI063 from A. oryzae [4]: less inhibited by product | Degree of hydrolysis ([5]; PepN 2 stock 0.02 mg/mL): 11% | Degree of hydrolysis ([5]; PepN 2 stock 0.03 mg/mL): 13% | Degree of hydrolysis ([5]; PepN 2 stock 0.04 mg/mL): 14% | Degree of hydrolysis ([5]; PepN 2 stock 0.05 mg/mL): 15% | Degree of hydrolysis ([5]; PepN 2 stock 0.1 mg/mL): 17% | Degree of hydrolysis ([5]; PepN 2 stock 0.15 mg/mL): 18% | Degree of hydrolysis ([5]; PepN 2 stock 0.2 mg/mL): 19% | Degree of hydrolysis ([5]; PepN 2 stock 0.25 mg/mL): 19% | Degree of hydrolysis ([5]; PepN 2 stock 0.3 mg/mL): 19% | Degree of hydrolysis ([5]; PepN 2 stock 0.35 mg/mL): 22% | Degree of hydrolysis [5, 7]: 6% | Degree of hydrolysis ([6]; PepN 2 stock 0.02 mg/mL): 17% | Degree of hydrolysis ([6]; PepN 2 stock 0.03 mg/mL): 19% | Degree of hydrolysis ([6]; PepN 2 stock 0.04 mg/mL): 19% | Degree of hydrolysis ([6]; PepN 2 stock 0.05 mg/mL): 21% | Degree of hydrolysis ([6]; PepN 2 stock 0.1 mg/mL): 23% | Degree of hydrolysis ([6]; PepN 2 stock 0.15 mg/mL): 28% | Degree of hydrolysis ([6]; PepN 2 stock 0.2 mg/mL): 24% | Degree of hydrolysis ([6]; PepN 2 stock 0.25 mg/mL): 26% | Degree of hydrolysis ([6]; PepN 2 stock 0.3 mg/mL): 27% | Degree of hydrolysis ([6]; PepN 2 stock 0.35 mg/mL): 29% | Degree of hydrolysis [6, 7]: 8%
